Assay results published in patent publication EP4782541A1 (Nanjing Probio Biotech Co., Ltd., dated 2026).

B1: BsAb-12 (bispecific antibody, human IgG1, lambda)
chain: EVQLVESGGGLVQPGGSLRLSCAASGRSFSSFQMGWFRQAPGKEREFVAASGWSGGPTYYWDSVIGRFTISTDNSKNTLYLQMNSLRAEDTAVYYCYEDRVLSGRPVRYWGQGTLVTVSSDKTHTCPPCPAPESTRGPSVFLFPPKPKDTLMISRTPEVTCVVVDVSHEDPEVKFNWYVDGVEVHNAKTKPREEQYNSTYRVVSVLTVLHQDWLNGKEYKCKVSNKALPAPIEKTISKAKGQPREPQVCTLPPSRDELTKNQVSLSCAVKGFYPSDIAVEWESNGQPENNYKTTPPVLDSDGSFFLVSKLTVDKSRWQQGNVFSCSVMHEALHNHYTQKSLSLSPGK
heavy: EVQLVESGGGLVQPGGSLRLSCAASGRSFSSFQMGWFRQAPGKEREFVAASGWSGGPTYYWDSVIGRFTISTDNSKNTLYLQMNSLRAEDTAVYYCYEDRVLSGRPVRYWGQGTLVTVSSGGGGSGGGGSGGGGSEVQLVESGGGLVQPGRSLRLSCAASGFTFNTYAMNWVRQAPGKGLEWVARIRSKYNNYATYYADSVKDRFTISRDDSKSIAYLQMNSLKTEDTAVYYCVRHGNFGNSYVSWFAYWGQGTLVTVSSASTKGPSVFPLAPSSKSTSGGTAALGCLVKDYFPEPVTVSWNSGALTSGVHTFPAVLQSSGLYSLSSVVTVPSSSLGTQTYICNVNHKPSNTKVDKKVEPKSCDKTHTCPPCPAPESTRGPSVFLFPPKPKDTLMISRTPEVTCVVVDVSHEDPEVKFNWYVDGVEVHNAKTKPREEQYNSTYRVVSVLTVLHQDWLNGKEYKCKVSNKALPAPIEKTISKAKGQPREPQVYTLPPCRDELTKNQVSLWCLVKGFYPSDIAVEWESNGQPENNYKTTPPVLDSDGSFFLYSKLTVDKSRWQQGNVFSCSVMHEALHNHYTQKSLSLSPGK
light: QTVVTQEPSLTVSPGGTVTLTCRSSTGAVTTSNYANWVQQKPGQAPRGLIGGTNKRAPGVPARFSGSLLGGKAALTLSGVQPEDEAEYFCALWYSNLWVFGGGTKLTVLGQPKAAPSVTLFPPSSEELQANKATLVCLISDFYPGAVTVAWKADSSPVKAGVETTTPSKQSNNKYAASSYLSLTPEQWKSHRSYSCQVTHEGSTVEKTVAPTECS
notes: also called BsAb-12 CD3×ROR1
B2: BsAb-9 (bispecific antibody, human IgG1, lambda)
chain: EVQLVESGGGLVQPGGSLRLSCAASGFISRFYAMGWYRQAPGKQRELVARISSMGWTYYADSVKGRFTISIDNSKNTLYLQMNSLRAEDTAVYYCNARNLWGQGTLVTVSSDKTHTCPPCPAPESTRGPSVFLFPPKPKDTLMISRTPEVTCVVVDVSHEDPEVKFNWYVDGVEVHNAKTKPREEQYNSTYRVVSVLTVLHQDWLNGKEYKCKVSNKALPAPIEKTISKAKGQPREPQVCTLPPSRDELTKNQVSLSCAVKGFYPSDIAVEWESNGQPENNYKTTPPVLDSDGSFFLVSKLTVDKSRWQQGNVFSCSVMHEALHNHYTQKSLSLSPGK
heavy: EVQLVESGGGLVQPGGSLRLSCAASGFISRFYAMGWYRQAPGKQRELVARISSMGWTYYADSVKGRFTISIDNSKNTLYLQMNSLRAEDTAVYYCNARNLWGQGTLVTVSSGGGGSGGGGSGGGGSEVQLVESGGGLVQPGRSLRLSCAASGFTFNTYAMNWVRQAPGKGLEWVARIRSKYNNYATYYADSVKDRFTISRDDSKSIAYLQMNSLKTEDTAVYYCVRHGNFGNSYVSWFAYWGQGTLVTVSSASTKGPSVFPLAPSSKSTSGGTAALGCLVKDYFPEPVTVSWNSGALTSGVHTFPAVLQSSGLYSLSSVVTVPSSSLGTQTYICNVNHKPSNTKVDKKVEPKSCDKTHTCPPCPAPESTRGPSVFLFPPKPKDTLMISRTPEVTCVVVDVSHEDPEVKFNWYVDGVEVHNAKTKPREEQYNSTYRVVSVLTVLHQDWLNGKEYKCKVSNKALPAPIEKTISKAKGQPREPQVYTLPPCRDELTKNQVSLWCLVKGFYPSDIAVEWESNGQPENNYKTTPPVLDSDGSFFLYSKLTVDKSRWQQGNVFSCSVMHEALHNHYTQKSLSLSPGK
light: B1 light
notes: also called BsAb-09

Assays:
[1] = molecular target: human ROR1 (on CHO-K1/ROR1 cells and ROR1 tumour cell lines) (human) (UniProt Q01973); assay: flow cytometry on A375 cells (human ROR1 tumour cell line)
human ROR1 (on CHO-K1/ROR1 cells and ROR1 tumour cell lines) (human), sequence (Q01973 30-937): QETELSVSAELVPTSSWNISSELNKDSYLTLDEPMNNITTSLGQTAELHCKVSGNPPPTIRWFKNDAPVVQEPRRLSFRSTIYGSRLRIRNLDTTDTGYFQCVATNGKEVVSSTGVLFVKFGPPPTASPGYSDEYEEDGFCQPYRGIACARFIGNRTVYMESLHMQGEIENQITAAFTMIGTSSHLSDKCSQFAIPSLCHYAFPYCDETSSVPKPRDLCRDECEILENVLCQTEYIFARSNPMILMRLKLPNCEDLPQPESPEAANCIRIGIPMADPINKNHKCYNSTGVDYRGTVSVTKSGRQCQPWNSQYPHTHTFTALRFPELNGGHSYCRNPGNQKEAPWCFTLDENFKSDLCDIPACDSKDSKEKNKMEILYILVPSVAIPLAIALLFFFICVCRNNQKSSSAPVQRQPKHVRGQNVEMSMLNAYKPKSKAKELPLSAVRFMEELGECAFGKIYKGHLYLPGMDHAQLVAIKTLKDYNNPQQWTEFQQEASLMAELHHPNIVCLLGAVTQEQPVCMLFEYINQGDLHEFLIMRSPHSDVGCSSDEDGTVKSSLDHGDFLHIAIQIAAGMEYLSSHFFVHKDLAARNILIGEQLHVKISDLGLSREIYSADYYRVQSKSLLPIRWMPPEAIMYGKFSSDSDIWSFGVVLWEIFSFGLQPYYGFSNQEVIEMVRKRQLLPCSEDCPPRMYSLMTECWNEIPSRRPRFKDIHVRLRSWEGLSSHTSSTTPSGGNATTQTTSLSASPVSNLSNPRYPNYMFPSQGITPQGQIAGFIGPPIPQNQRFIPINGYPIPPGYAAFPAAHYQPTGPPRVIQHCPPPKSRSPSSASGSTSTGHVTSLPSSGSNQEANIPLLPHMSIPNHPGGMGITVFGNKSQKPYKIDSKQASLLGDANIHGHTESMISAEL

[2] = molecular target: human ROR1 (on CHO-K1/ROR1 cells and ROR1 tumour cell lines) (human) (UniProt Q01973); assay: flow cytometry on MDA-MB-231 cells (human ROR1 tumour cell line)
[3] = molecular target: human ROR1 (on CHO-K1/ROR1 cells and ROR1 tumour cell lines) (human) (UniProt Q01973); assay: flow cytometry on A549 cells (human ROR1 tumour cell line)
[4] = molecular target: T1, human CD3 (on Jurkat cells) (human, UniProt P07766 23-207; P09693 23-182; P04234 22-171); assay: flow cytometry on Jurkat cells expressing human CD3
T1 construct: whole, on cells
T1 sequence (P07766 23-207, chain 1 of 3): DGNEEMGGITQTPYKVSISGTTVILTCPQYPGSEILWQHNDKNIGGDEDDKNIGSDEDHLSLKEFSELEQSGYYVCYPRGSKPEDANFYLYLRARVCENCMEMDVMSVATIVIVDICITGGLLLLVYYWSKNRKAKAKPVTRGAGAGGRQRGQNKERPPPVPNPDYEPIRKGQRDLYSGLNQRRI
T1 sequence (P09693 23-182, chain 2 of 3): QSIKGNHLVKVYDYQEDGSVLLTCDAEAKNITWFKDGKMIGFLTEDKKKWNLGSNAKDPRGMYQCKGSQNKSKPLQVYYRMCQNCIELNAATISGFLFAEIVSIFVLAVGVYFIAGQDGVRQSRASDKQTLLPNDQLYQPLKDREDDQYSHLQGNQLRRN
T1 sequence (P04234 22-171, chain 3 of 3): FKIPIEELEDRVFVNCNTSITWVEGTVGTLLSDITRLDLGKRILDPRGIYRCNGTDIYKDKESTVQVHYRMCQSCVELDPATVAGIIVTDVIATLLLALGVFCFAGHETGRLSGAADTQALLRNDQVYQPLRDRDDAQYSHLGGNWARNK

[5] = molecular target: human ROR1 (on CHO-K1/ROR1 cells and ROR1 tumour cell lines) (human) (UniProt Q01973); assay: cell-based or functional assay
[6] = molecular target: human ROR1 (on CHO-K1/ROR1 cells and ROR1 tumour cell lines) (human) (UniProt Q01973); assay: flow cytometry on CHO-K1/ROR1 cells overexpressing human ROR1
[7] = molecular target: human ROR1 (on CHO-K1/ROR1 cells and ROR1 tumour cell lines) (human) (UniProt Q01973); assay: flow cytometry on Jeko-1 cells (human ROR1 tumour cell line)
[8] = molecular target: human ROR1 (on CHO-K1/ROR1 cells and ROR1 tumour cell lines) (human) (UniProt Q01973); assay: flow cytometry on PSN-1 cells (human ROR1 tumour cell line)
[9] = molecular target: human ROR1 (on CHO-K1/ROR1 cells and ROR1 tumour cell lines) (human) (UniProt Q01973); assay: flow cytometry on PA-1 cells (human ROR1 tumour cell line)
[10] = molecular target: T2, human ROR1 protein (human, UniProt Q01973 30-403, limits assumed); assay: SPR (Biacore 8K); human ROR1 amine-coupled at 0.50 ug/mL as ligand, antibody as analyte
T2 construct: Recombinant antigen of the SPR assay; also called ROR1 (SPR ligand)
T2 sequence (Q01973 30-403 limits assumed): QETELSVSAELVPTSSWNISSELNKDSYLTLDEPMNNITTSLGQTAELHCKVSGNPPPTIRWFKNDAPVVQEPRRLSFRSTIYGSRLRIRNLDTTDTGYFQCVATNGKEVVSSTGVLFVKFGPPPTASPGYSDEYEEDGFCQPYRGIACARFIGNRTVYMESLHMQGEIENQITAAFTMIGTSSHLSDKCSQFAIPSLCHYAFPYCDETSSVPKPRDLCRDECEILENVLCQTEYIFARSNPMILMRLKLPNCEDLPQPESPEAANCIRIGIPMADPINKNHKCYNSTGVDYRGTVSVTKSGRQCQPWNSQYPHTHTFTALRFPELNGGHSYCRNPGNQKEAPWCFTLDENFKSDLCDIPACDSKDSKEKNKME

[11] = molecular target: T3, human ROR1 (on CHO-K1/ROR1 cells and ROR1 tumour cell lines) (human, UniProt Q01973 30-937); assay: flow cytometry on Jeko-1 cells (human ROR1 tumour cell line)
T3 construct: whole, on cells; also called receptor tyrosine kinase-like orphan receptor 1
T3 sequence (Q01973 30-937): as the sequence (Q01973 30-937) above

[12] = molecular target: T3, human ROR1 (on CHO-K1/ROR1 cells and …); assay: flow cytometry on CHO-K1/ROR1 cells overexpressing human ROR1
[13] = molecular target: T3, human ROR1 (on CHO-K1/ROR1 cells and …); assay: flow cytometry on A549 cells (human ROR1 tumour cell line)
[14] = molecular target: T3, human ROR1 (on CHO-K1/ROR1 cells and …); assay: cell-based or functional assay
[15] = molecular target: T2, human ROR1 protein; assay: SPR (Biacore 8K); human ROR1 amine-coupled at 0.10 ug/mL as ligand, antibody as analyte
[16] = molecular target: T2, human ROR1 protein; assay: SPR (Biacore 8K); human ROR1 amine-coupled at 2.50 ug/mL as ligand, antibody as analyte
[17] = molecular target: T3, human ROR1 (on CHO-K1/ROR1 cells and …); assay: flow cytometry on MDA-MB-231 cells (human ROR1 tumour cell line)
[18] = molecular target: T3, human ROR1 (on CHO-K1/ROR1 cells and …); assay: flow cytometry on PA-1 cells (human ROR1 tumour cell line)
[19] = molecular target: T3, human ROR1 (on CHO-K1/ROR1 cells and …); assay: flow cytometry on PSN-1 cells (human ROR1 tumour cell line)
[20] = molecular target: T2, human ROR1 protein; assay: SPR (Biacore 8K); human ROR1 amine-coupled at 62.50 ug/mL as ligand, antibody as analyte
[21] = molecular target: T2, human ROR1 protein; assay: SPR (Biacore 8K); human ROR1 amine-coupled at 0.05 ug/mL as ligand, antibody as analyte
[22] = molecular target: T2, human ROR1 protein; assay: SPR (Biacore 8K); human ROR1 amine-coupled at 12.50 ug/mL as ligand, antibody as analyte
[23] = molecular target: T3, human ROR1 (on CHO-K1/ROR1 cells and …); assay: flow cytometry on A375 cells (human ROR1 tumour cell line)

Row | Molecule | EC50 [4] [nM] | Kd [10] [nM] | koff [10] [s⁻¹] | kon [10] [M⁻¹ s⁻¹] | EC50 [12] [nM] | Kd [15] [nM] | koff [15] [s⁻¹] | kon [15] [M⁻¹ s⁻¹] | Kd [16] [nM] | koff [16] [s⁻¹] | kon [16] [M⁻¹ s⁻¹] | Kd [20] [nM] | koff [20] [s⁻¹] | kon [20] [M⁻¹ s⁻¹] | Kd [21] [nM] | koff [21] [s⁻¹] | kon [21] [M⁻¹ s⁻¹] | Kd [22] [nM] | koff [22] [s⁻¹] | kon [22] [M⁻¹ s⁻¹] | other results
1 | EMB-07 (bispecific antibody) | 4.45 | – | – | – | – | – | – | – | – | – | – | – | – | – | – | – | – | – | – | – | EC50 [1]: 2.5 nM; EC50 [2]: 3.84 nM; EC50 [3]: 4.01 nM; EC50 of T cell activation based on reporter gene (luciferase), target cells A375 [5]: 0.428 nM; EC50 of T cell activation based on reporter gene (luciferase), target cells Jeko-1 [5]: 0.155 nM; EC50 of T cell activation based on reporter gene (luciferase), target cells MDA-MB-231 [5]: 0.0644 nM; EC50 [6]: 2.39 nM; EC50 [7]: 7.15 nM; EC50 [8]: 6.09 nM; EC50 [9]: 5.06 nM
2 | B1 | 1.39 | 0.354 | 0.000207 | 585000 | 0.223 | 0.359 | 0.000169 | 471000 | 0.106 | 8.37e-05 | 788000 | 0.0267 | 2.83e-05 | 1.06e+06 | 0.649 | 0.000421 | 649000 | 0.0349 | 5.83e-05 | 1.67e+06 | EC50 [11]: 0.133 nM; EC50 [13]: 0.415 nM; EC50 of T cell activation based on reporter gene (luciferase), target cells A375 [14]: 0.0117 nM; EC50 of T cell activation based on reporter gene (luciferase), target cells Jeko-1 [14]: 0.00748 nM; EC50 of T cell activation based on reporter gene (luciferase), target cells MDA-MB-231 [14]: 0.00258 nM; EC50 [17]: 0.308 nM; EC50 [18]: 0.547 nM; EC50 [19]: 1.17 nM; EC50 [23]: 0.155 nM
3 | B2 | 1.38 | 0.0216 | 0.00083 | 3.85e+07 | 0.0864 | 0.0497 | 0.00113 | 2.28e+07 | 0.0129 | 0.000521 | 4.05e+07 | 0.00682 | 0.000187 | 2.73e+07 | 0.0811 | 0.00143 | 1.76e+07 | 0.00664 | 0.000242 | 3.65e+07 | –
